Source: patent publication US20220125837A1, “METHODS FOR CONTROLLED ELIMINATION OF THERAPEUTIC CELLS” (Bellicum Pharmaceuticals, Inc., priority 2014, published 2022)
Positions count from the first letter of the chain named. Numbers in names are those of the source. Entries after “also recorded” stand apart in the source; their conditions may differ.

System: HEK293T/16 cells
Experiment: Secreted alkaline phosphatase (SEAP) surrogate killing assay of iCasp9 mutants
Format: cell-based, human
Details: for relative SEAP activity Units (basal activity): no AP1903; for basal activity, in words: SEAP assay without AP1903, relative to wild type Caspase-9
Description: Early passage HEK293T/16 cells (ATCC, Manassas, Va.) were maintained in IMDM, GlutaMAX™ (Life Technologies, Carlsbad, Calif.) supplemented with 10% FBS, 100 U/mL penicillin, and 100 U/mL streptomycin until transfection in a humidified, 37° C., 5% CO2/95% air atmosphere. Cells in logarithmic-phase growth were transiently transfected with 800 ng to 2 μg of expression plasmid encoding iCasp9 mutants and 500 ng of an expression plasmid encoding SRα promoter driven SEAP per million cells in 15-mL conical tubes. […] GeneJammer® Transfection Reagent at a ratio of 3 μl per ug of plasmid DNA was used to transiently transfect HEK293T/16 cells in the absence of antibiotics. 100 μl or 2 mL of the transfection mixture was added to each well in 96-well or 6-well plate, respectively.
Briefly, after 65° C. heat denaturation for 45 minutes to reduce background caused by endogenous (and serum-derived) alkaline phosphatases that are sensitive to heat, 5 μl of supernatants was added to 95 μl of PBS and added to 100 μl of substrate buffer, containing 1 μl of 100 mM 4-methylumbelliferyl phosphate (4-MUP; Sigma, St. Louis, Mo.) re-suspended in 2 M diethanolamine. Hydrolysis of 4-MUP by SEAP produces a fluorescent substrate with excitation/emission (355/460 nm), which can be easily measured. […] 1000-ul of the mixture was seeded onto each well of a 96-well plate. […] For the assay, 4-methylumbelliferyl phosphate substrate was hydrolyzed by SEAP to 4-methylumbelliferon, a metabolite that can be excited with 364 nm and detected with an emission filter of 448 nm. Since SEAP is used as a marker for cell viability, reduced SEAP reading corresponds with increased iCaspase-9 activities.

B1: D330A-N405Q: modified Caspase-9 polypeptide having a substitution at position 330 and a substitution at position 405 (protein, UniProt P55211 1-416, looked up, variant D330A N405Q)
chain: MDEADRRLLRRCRLRLVEELQVDQLWDALLSRELFRPHMIEDIQRAGSGSRRDQARQLIIDLETRGSQALPLFISCLEDTGQDMLASFLRTNRQAAKLSKPTLENLTPVVLRPEIRKPEVLRPETPRPVDIGSGGFGDVGALESLRGNADLAYILSMEPCGHCLIINNVNFCRESGLRTRTGSNIDCEKLRRRFSSLHFMVEVKGDLTAKKMVLALLELAQQDHGALDCCVVVILSHGCQASHLQFPGAVYGTDGCPVSVEKIVNIFNGTSCPSLGGKPKLFFIQACGGEQKDHGFEVASTSPEDESPGSNPEPDATPFQEGLRTFDQLAAISSLPTPSDIFVSYSTFPGFVSWRDPKSGSWYVETLDDIFEQWAHSEDLQSLLLRVANAVSVKGIYKQMPGCFQFLRKKLFFKTS
modifications: iCasp9, fused to FKBP12 F36V domain
For B1, the “relative SEAP activity Units (basal activity)” value (1 μg iCasp9 per million cells, higher SEAP = lower basal activity) was 205772, the “relative SEAP activity Units (basal activity)” value (2 μg iCasp9 per million cells) was 174366 and the “basal activity, in words” value was “intermediate”. For the same molecule, the “basal activity, in words” value (listed as iCasp9 D330A N405Q) was “low to undetectable basal activity”.

B2: F319W: chimeric modified Caspase-9 polypeptide (protein, UniProt P55211 1-416, looked up, variant F319W)
chain: B1 chain with F319W, A330D, Q405N
modifications: fused to FKBP12 F36V dimerization domain
notes: chimeric modified Caspase-9 polypeptide
In the case of B2, the “basal activity, in words” value is reported as “lower basal activity”.

B3: F319A: chimeric modified Caspase-9 polypeptide (protein, UniProt P55211 1-416, looked up, variant F319A)
chain: B1 chain with F319A, A330D, Q405N
modifications: fused to FKBP12 F36V dimerization domain
notes: as for B2
For B3, the “basal activity, in words” value was “no effect”.

B4: ^402GCFNF^406ISAQT: Caspase-9 polypeptide with the equivalent 5 residues from Caspase-10 (protein, UniProt P55211 1-416, looked up, variant G402I C403S F404A N405Q F406T)
chain: B1 chain with A330D, G402I, C403S, F404A, F406T
For B4, the “basal activity, in words” value was “reduced basal activity”.

B5: N405F: chimeric modified Caspase-9 polypeptide (protein, UniProt P55211 1-416, looked up, variant N405F)
chain: B1 chain with A330D, Q405F
modifications: fused to FKBP12 F36V dimerization domain
notes: as for B2
With B5 the “basal activity, in words” value was “lowered basal activity”.

B6: D327G: chimeric modified Caspase-9 polypeptide (protein)
chain: VDGFGDVGALESLRGNADLAYILSMEPCGHCLIINNVNFCRESGLRTRTGSNIDCEKLRRRFSSLHFMVEVKGDLTAKKMVLALLELARQDHGALDCCVVVILSHGCQASHLQFPGAVYGTDGCPVSVEKIVNIFNGTSCPSLGGKPKLFFIQACGGEQKDHGFEVASTSPEDESPGSNPEPDATPFQEGLRTFGQLDAISSLPTPSDIFVSYSTFPGFVSWRDPKSGSWYVETLDDIFEQWAHSEDLQSLLLRVANAVSVKGIYKQMPGCFNFLRKKLFFKTSASRA
In the case of B6, the “basal activity, in words” value is reported as “did not lower basal activity”.

B7: Q328K: chimeric modified Caspase-9 polypeptide (protein)
chain: B6 chain with G195D, Q196K
For B7, the “basal activity, in words” value was “did not lower basal activity”.

B8: D330N: chimeric modified Caspase-9 polypeptide (protein)
chain: B6 chain with G195D, D198N
With B8 the “basal activity, in words” value was “less basal activity than wild type Caspase-9”.

B9: A331K: chimeric modified Caspase-9 polypeptide (protein)
chain: B6 chain with G195D, A199K
With B9 the “basal activity, in words” value was “did not lower basal activity”.

B10: S196A: chimeric modified Caspase-9 polypeptide (protein)
chain: B6 chain with S64A, G195D
With B10 the “basal activity, in words” value was “lower basal activity”.

B11: S144A: chimeric modified Caspase-9 polypeptide (protein)
chain: B6 chain with S12A, G195D
With B11 the “basal activity, in words” value was “lower basal activity”.

B12: L329K: chimeric modified Caspase-9 polypeptide (protein)
chain: B6 chain with G195D, L197K
B12 was tested, and the “basal activity, in words” value was “did not lower basal activity”.

B13: S183A: chimeric modified Caspase-9 polypeptide (protein)
chain: B6 chain with S51A, G195D
For B13, the “basal activity, in words” value was “lower basal activity”.

B14: L329G: chimeric modified Caspase-9 polypeptide (protein)
chain: B6 chain with G195D, L197G
For B14, the “basal activity, in words” value was “did not lower basal activity”.

B15: D327R: chimeric modified Caspase-9 polypeptide (protein)
chain: B6 chain with G195R
In the case of B15, the “basal activity, in words” value is reported as “did not lower basal activity”.

B16: T317C: chimeric modified Caspase-9 polypeptide (protein)
chain: B6 chain with T185C, G195D
For B16, the “basal activity, in words” value was “no effect”.

B17: D327K: chimeric modified Caspase-9 polypeptide (protein)
chain: B6 chain with G195K
With B17 the “basal activity, in words” value was “did not lower basal activity”.

B18: S196D: chimeric modified Caspase-9 polypeptide (protein)
chain: B6 chain with S64D, G195D
For B18, the “basal activity, in words” value was “lower basal activity”.

B19: D330V: chimeric modified Caspase-9 polypeptide (protein)
chain: B6 chain with G195D, D198V
With B19 the “basal activity, in words” value was “less basal activity than wild type Caspase-9”.

B20: T317A: chimeric modified Caspase-9 polypeptide (protein)
chain: B6 chain with T185A, G195D
For B20, the “basal activity, in words” value was “lower basal activity; also recorded: reduce basal activity”.

B21: S144D: chimeric modified Caspase-9 polypeptide (protein)
chain: B6 chain with S12D, G195D
In the case of B21, the “basal activity, in words” value is reported as “lower basal activity”.

B22: A316G: chimeric modified Caspase-9 polypeptide (protein)
chain: B6 chain with A184G, G195D
In the case of B22, the “basal activity, in words” value is reported as “lower basal activity”.

B23: F326K: chimeric modified Caspase-9 polypeptide (protein)
chain: B6 chain with F194K, G195D
In the case of B23, the “basal activity, in words” value is reported as “did not lower basal activity”.

B24: Q328R: chimeric modified Caspase-9 polypeptide (protein)
chain: B6 chain with G195D, Q196R
B24 was tested, and the “basal activity, in words” value was “did not lower basal activity”.
